Laboratory results as given in PMC3806761, “Characterization of the Akt2 Domain Essential for Binding Nuclear p21cip1 to Promote Cell Cycle Arrest during Myogenic Differentiation” (PLoS ONE, 2013).

Tests used:
[1] = biological target: T1, recombinant human p21cip1 (human, UniProt P38936 1-164); assay: pull-down; purified His-tagged Akt2 proteins and His-tagged p21cip1 incubated together on ice; p21cip1 immunoprecipitated with anti-p21; immunoprecipitates probed for Akt2 by Western blot; settings: both partners purified
T1 construct: In the functional row this molecule stands for p21cip1 endogenous in human myoblasts; source: recombinant, purified

[2] = biological target: T1, recombinant human p21cip1; assay: pull-down; MBP-tagged Akt2 peptides bound to amylose resin, incubated with p21 (1 µg and 5 µg), extensively washed, maltose-fusion peptides eluted, blotted with anti-p21; settings: both partners purified

T1 sequence (P38936 whole entry): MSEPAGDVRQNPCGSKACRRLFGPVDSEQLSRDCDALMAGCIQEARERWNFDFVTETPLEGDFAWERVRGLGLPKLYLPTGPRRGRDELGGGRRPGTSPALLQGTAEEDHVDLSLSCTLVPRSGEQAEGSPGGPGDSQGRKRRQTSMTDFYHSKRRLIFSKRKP

Row | binding result [1] | binding result [2] | Binder
1 | binds | – | Akt2 (400–481) (domain or fragment, human, UniProt P31751 400-481, looked up, The tag is therefore uncertain; source: expressed in bacteria, purified; not shown: His6, C-terminal, kept) AKEVMEHRFFLSINWQDVVQKKLLPPFKPQVTSEVDTRYFDDEFTAQSITITPPDRYDSLGLLELDQRTHFPQFSYSASIRE
2 | binds | – | Akt2 (350–481) (domain or fragment, human, UniProt P31751 350-481, looked up, The tag is therefore uncertain; source: expressed in bacteria, purified; not shown: His6, C-terminal, kept) FYNQDHERLFELILMEEIRFPRTLSPEAKSLLAGLLKKDPKQRLGGGPSDAKEVMEHRFFLSINWQDVVQKKLLPPFKPQVTSEVDTRYFDDEFTAQSITITPPDRYDSLGLLELDQRTHFPQFSYSASIRE
3 | – | binds | AKEVMEHRFFLSINWQDVVQKKLLPPFKPQVTSEVDTRYFDDEFTA (domain or fragment, human, UniProt P31751 400-445, looked up, The methods name no vector for this construct) [Akt2 (400–445) maltose binding fusion protein]
4 | – | binds | KKLLPPFKPQVTSEVDTRYFDDEFTA (domain or fragment, human, UniProt P31751 420-445, looked up, The methods name no vector for this construct) [Akt2 (420–445) maltose binding fusion protein]
